The source of these data is publication PMC4722774, “Characterization of a cold-active esterase from Serratia sp. and improvement of thermostability by directed evolution” (BMC Biotechnology, 2016).

The test system of data set [1] is T1, CC(=O)Oc1ccc([N+](=O)[O-])cc1.
T1 construct: full-length 302 residues, no signal peptide predicted; GST fusion (pGEX-6P-1) in E. coli BL21 (DE3), GST cut off by 3C protease; ~32 kDa
The experiment in a line: purified protein. The format is biochemical, Serratia sp. HZ15. The following applies: pH 8.5, 50 mM Tris-HCl, 10 °C, 0.01-0.3 mM substrate.

Substrate in the data set “purified protein”: CC(=O)Oc1ccc([N+](=O)[O-])cc1
The experiment in a line: purified protein. The following applies: pH 8.5, 50 mM Tris-HCl, 10 °C, 0.01-0.3 mM substrate. The format is biochemical, Serratia sp. HZ15.

With “EstS (Serratia sp. HZ15; A43V/D147N/R116W)”, in data set [1], the Michaelis-Menten constant (Km) worked out at 87.59 ± 2.4 µM, the kcat was 2500 s⁻¹ and the kcat/Km is 2.86e+07 ± 3.7e+06 M⁻¹ s⁻¹.

B1: EstS (Serratia sp. HZ15) (protein)
chain: MPLDPQIARFLAEAAQAPAPASLSEMREVAHAGLLALQGEAEASGGVRDGWVTADDGRAIAIRAYTPGGATPGEPLPAMLYAHGGGWCLGSLALYDRPCQALANATGRVILSVDYRLAPEYPYPRPLEDVYQALCGVVERADEWGVDVARMAVGGDSAGGNLAAAVALLARDRKGPQIEHQLLLYPALSRAMDTASYKEYAQGYYLTREVMAFCWNTYLGEADKPQDPYAEPLHAPMLQRLPPATILSCEYDPLRDEAELYAKRLQEAGVAVRCERLPGMVHACIHMLGLTPAARVLFDKVG
notes: full-length 302 residues, no signal peptide predicted; GST fusion (pGEX-6P-1) in E. coli BL21 (DE3), GST cut off by 3C protease; ~32 kDa
Take B1: in “purified protein”, the Km was determined as 74.02 ± 1.9 µM, the kcat was determined as 2340 s⁻¹ and the kcat/Km was found to be 3.16e+07 ± 3.1e+06 M⁻¹ s⁻¹.
